Results from patent publication US20240287172A1 (SCIRHOM, published 2024).

T1: hiR2-FL-P533-T7 (deletion of P533) (human, UniProt Q6PJF5 1-856)
T1 construct: single residue deletion, not a substitution; on MEF-DKO cells
T1 sequence: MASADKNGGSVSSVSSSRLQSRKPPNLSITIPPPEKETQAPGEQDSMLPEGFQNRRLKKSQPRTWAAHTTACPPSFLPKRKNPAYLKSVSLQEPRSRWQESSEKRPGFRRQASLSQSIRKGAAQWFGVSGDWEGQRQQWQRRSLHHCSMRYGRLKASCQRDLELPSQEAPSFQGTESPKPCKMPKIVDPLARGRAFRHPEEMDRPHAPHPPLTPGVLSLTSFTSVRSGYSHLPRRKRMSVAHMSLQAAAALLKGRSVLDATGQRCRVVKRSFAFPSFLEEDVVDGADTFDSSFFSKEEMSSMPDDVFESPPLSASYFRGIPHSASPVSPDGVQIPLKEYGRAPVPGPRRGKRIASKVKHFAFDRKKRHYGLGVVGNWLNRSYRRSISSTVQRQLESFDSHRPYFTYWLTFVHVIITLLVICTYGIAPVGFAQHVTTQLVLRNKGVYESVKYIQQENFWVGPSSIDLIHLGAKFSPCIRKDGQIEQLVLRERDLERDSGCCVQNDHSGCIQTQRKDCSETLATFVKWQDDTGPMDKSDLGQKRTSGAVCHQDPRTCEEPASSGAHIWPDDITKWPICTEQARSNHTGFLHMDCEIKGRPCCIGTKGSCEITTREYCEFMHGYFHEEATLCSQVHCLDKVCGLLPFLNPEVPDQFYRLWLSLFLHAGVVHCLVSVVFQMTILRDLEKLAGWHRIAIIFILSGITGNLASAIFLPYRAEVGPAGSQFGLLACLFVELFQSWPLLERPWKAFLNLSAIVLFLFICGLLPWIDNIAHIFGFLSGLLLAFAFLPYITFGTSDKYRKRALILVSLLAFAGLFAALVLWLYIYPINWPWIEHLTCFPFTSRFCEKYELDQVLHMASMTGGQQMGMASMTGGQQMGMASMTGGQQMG

T2: human iRhom2, endogenously expressed (human, UniProt Q6PJF5 1-856)
T2 construct: also called RHBDF2
T2 sequence: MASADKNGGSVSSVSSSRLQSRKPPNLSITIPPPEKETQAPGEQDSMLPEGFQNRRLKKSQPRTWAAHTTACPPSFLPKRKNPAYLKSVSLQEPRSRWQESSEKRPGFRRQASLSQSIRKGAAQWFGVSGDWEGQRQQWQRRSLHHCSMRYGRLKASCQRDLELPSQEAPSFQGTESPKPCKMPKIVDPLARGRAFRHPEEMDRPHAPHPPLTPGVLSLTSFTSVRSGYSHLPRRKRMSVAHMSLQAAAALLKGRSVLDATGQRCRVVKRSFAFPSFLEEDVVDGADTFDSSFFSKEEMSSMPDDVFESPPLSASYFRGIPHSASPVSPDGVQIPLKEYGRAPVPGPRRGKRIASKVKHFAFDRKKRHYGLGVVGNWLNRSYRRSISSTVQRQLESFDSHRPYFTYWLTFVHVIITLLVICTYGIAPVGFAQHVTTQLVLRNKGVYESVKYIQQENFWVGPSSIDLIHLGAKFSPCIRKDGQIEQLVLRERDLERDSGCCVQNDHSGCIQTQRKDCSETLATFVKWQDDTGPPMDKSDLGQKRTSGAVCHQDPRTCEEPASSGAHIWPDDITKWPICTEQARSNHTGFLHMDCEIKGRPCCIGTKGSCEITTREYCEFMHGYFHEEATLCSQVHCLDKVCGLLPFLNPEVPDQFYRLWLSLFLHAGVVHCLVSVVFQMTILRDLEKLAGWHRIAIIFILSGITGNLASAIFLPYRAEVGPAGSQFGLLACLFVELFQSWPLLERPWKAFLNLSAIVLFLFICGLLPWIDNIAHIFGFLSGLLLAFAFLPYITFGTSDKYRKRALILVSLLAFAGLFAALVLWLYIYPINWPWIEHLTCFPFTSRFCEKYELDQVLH


Assays:
[1] = molecular target: T1, hiR2-FL-P533-T7 (deletion of P533); test: FACS on MEF-DKO cells
[2] = molecular target: T2, human iRhom2, endogenously expressed; test: indirect FACS scatchard analysis on THP-1 cells
Method: In brief, human THP-1 cells (American Type Culture Collection, USA) were harvested with 10 mM EDTA in PBS, washed and resuspended in FACS buffer (PBS, 3% FBS, 0.05% sodium azide), and seeded in Nunc U-bottom 96-well plates (Thermo Fisher Scientific, USA) at approximately 3×10⁵ cells per well. In order to pellet cells and remove supernatants, the plates were centrifuged at 1,500 rpm and 4° C. for 3 minutes. For primary staining, cells were resuspended in 100 μl per well of either FACS buffer alone (controls) or serial two-fold dilutions (in total 22 concentrations) of the purified antibodies 3, 5, 16, 22, 34, 42, 43, 44, 48, and 50 of the invention in FACS buffer starting at 40 μg/ml and incubated on ice for 1 hour. Afterwards, plates were centrifuged at 1,500 rpm and 4° C. for 3 minutes and washed twice with 200 μl per well of FACS buffer. For secondary staining, cells were spun down and resuspended in 100 μl per well of PE-conjugated goat anti-mouse IgG F(ab′)2 detection fragment (Dianova, Germany) diluted 1:100 in FACS buffer. Protected from light, the cell suspensions were incubated on ice for 1 hour. Plates were then centrifuged at 1,500 rpm and 4° C. for 3 minutes and washed three times with 200 μl per well of FACS buffer. Finally, cells were resuspended in 150 μl per well of FACS buffer and analyzed using a BD Accuri™ C6 Plus flow cytometer (Becton Dickinson, Germany). Applying Prism8 software (GraphPad Sowtware, USA), the respective KD value for each of the antibodies of the invention were calculated.

Row | Binder | binding result [1] | Kd [2]
1 | antibody 34 (antibody, V domains shown, mouse IgG, kappa light chain; also called clone #34; purified antibody 34) VH: QVTLKESGPGILQPSQTLSLTCSFSGFSLSTFSLGVGWIRQSSGKGLEWLAHIWWDDEKYYNPALKSRLTISKDTSKNQVFLKIANVDAADTATYYCARAYYSKSYYALDYWGQGTSVTVSS VL: DIQMTQSPSSLSASLGERVSLTCRASQEISGYLSWLQQKPDGTIKRLIYAASTLDSGVPKRFSGSRSGSDYSLAISSLESEDFADYYCLQYANFPFTFGSGTKLEIK | no binding (tested: 3 µg/ml) | 1.94 nM
2 | antibody 48 (antibody, V domains shown, mouse IgG, kappa light chain; also called clone #48; purified antibody 48) VH: QVQLQQSGTELVRPGTSVKVSCKASGYAFTNYLIEWVKQRPGQGLEWIGVINPGSGFTKYNEKFKGKATLTADKSSSTVYMHLSSLTSEDSAVYFCARGLYRAMDYWGQGTSVTVSS VL: DIQMTQSPASQSASLGESVTITCLASQTIATWLAWYQQKPGKSPQLLIYGATTLADGVPSRFSGGGSGTKFSFKISSLQAEDFVSYYCQQLYSTPYTFGGGTKLEIK |  | 1.73 nM
3 | antibody 50 (antibody, V domains shown, mouse IgG, kappa light chain; also called clone #50; purified antibody 50) VH: QVQLQQSGAELVRPGASVKVSCKASGYAFSNYLIEWVKQRPGQGLEWIGVINPGSGFTKYNEKFKGKATLTADKSSSTAYMQLSSLTSEDSAVYFCARGLYRAMDYWGQGTSVTVSS VL: DIQMTQSPASQSASLGESVTITCLASQTIGTWLAWYQQKPGKSPQLLIYAAASLADGVPSRFSGGGSGTKFSFKISSLQAEDFVNYYCQQIYSTPYTFGGGTKLEIK |  | 1.43 nM
4 | antibody 5 (antibody, V domains shown, mouse IgG, kappa light chain; also called clone #5; purified antibody 5) VH: QVTLKESGPGILQPSQTLSLTCSFSGFSLSTFGMGVGWIRQPSGKGLEWLAHIWWDDEKYYNSALKSRLTISKATSKNQAFLKIANVDTADTATYYCARISNYGSNYWYFNVWGTGTTVTVSS VL: QVVLTQSPALMSASPGEKVTMTCSAGSSVSCMYWYQQKPGSSPRVLIYDTSNLASGVPARFTGSGSGTSYSLTISRMEAEDAASYYCQQWNSYPLTFGAGTKLELK | no binding (tested: 3 µg/ml) | 3.35 nM
5 | antibody 42 (antibody, V domains shown, mouse IgG, kappa light chain; also called clone #42; purified antibody 42) VH: QVTLKESGPGILQPSQTLSLTCSLSGFSLSTFGRGVGWIRQPSGKGLEWLAHIWWDDEKYYNPALKSRLTISKDTSKNQVFLRIANVDTADTATYYCARIQNYGSNYWYFDVWGTGTTVTVSS VL: LIVLTQSPAIMSASPGEKVTMTCGATSRISYMFWYQQKPGSSPRVLIYDTSNLASGVPVRFSGSGSGTSYSLTISRVEAEDVATYYCQQWNSYPLTFGAGTKLELK | no binding (tested: 3 µg/ml) | 1.9 nM
6 | antibody 43 (antibody, V domains shown, mouse IgG, kappa light chain; also called clone #43; purified antibody 43) VH: QVALKESGPGILQPSQTLSLTCSFSGFSLSTFGMGVGWIRQSSGKGLEWLANIWWDDDKYYNPALKSRLTISKDASKNQAFLKIANVDTADTATYYCARIGNYGSNYWYFDVWGTGTTVTVSS VL: QIVLTQSPAIMSASPGERVTMTCSANSRISYMYWYQQKPGSSPRLLIYDTSNLASGVPVRFSGSGSGTSYSLTISRMEAEDAATYNCQQWSSYPLTFGAGTKLELK | no binding (tested: 3 µg/ml) | 4.55 nM
7 | antibody 44 (antibody, V domains shown, mouse IgG, kappa light chain; also called clone #44; purified antibody 44) VH: QVTLKESGPGILQPSQTLSLTCSFSGFSLSTFGMGVGWIRQPSEKGLEWLAHIWWDDDKYYNPALKSRLTISKDTSKNQIFLKITNVDTAETATYYCSRIGNYGSNYWYFDVWGTGTTVTVSS VL: QIVLTQSPAVMSASPGEKVTMTCTASSSVYYMYWYQQTPGSSPRLLIYDTSNLASGVPVRFSGSGSGTSYSLTISRMEAEDAATYYCQQWNTYPLTFGAGTKLELK | no binding (tested: 3 µg/ml) | 0.44 nM
8 | antibody 22 (antibody, V domains shown, mouse IgG, kappa light chain; also called clone #22; purified antibody 22) VH: QVTLKESGPGILQPSQTLSLTCSFSGFSLSTFGMGVGWIRQPSGKGLEWLAHIWWDDEKYYNSALKSRLTISKATSKNQVFLKIANVDTADTATYYCARISNYGSNYWYFNVWGTGTTVTVSS VL: QVVLTQSPALMSASPGEKVTMTCSAGSSVSYMYWYQQKPGSSPRVLIYDTSNLASGVPARFTGSGSGTSYSLTISRMEAEDAATYYCQQWNSYPLTFGAGTKLELK | no binding (tested: 3 µg/ml) | 2.04 nM
9 | antibody 16 (antibody, V domains shown, mouse IgG, kappa light chain; also called clone #16; purified antibody 16) VH: QVTLKESGPGILQPSQTLSLTCSFSGFSLSTFALGVGWIRQPSGRGLEWLAHIWWDDDKYYNPALKSRLTISKDTSKNHVFLKIANVDTADTATYYCARITTYYYGMDYWGQGTSVTVSS VL: DIVLSQSPATLSVTPGDSVSLFCRASQSIGNHLHWYQQESHASPRLLIKYASQSISGIPSRFSGSGSGTDFTLSINSVETEDFGMYFCQQSYNWPLTFGAGTKLELK | no binding (tested: 3 µg/ml) | 0.34 nM
10 | antibody 3 (antibody, V domains shown, mouse IgG, kappa light chain; also called clone #3; purified antibody 3) VH: QVTLKESGPGILQPSQTLSLTCSFSGFSLTTFAMGIGWVRQPSGKGLEWLAHIWWDGEKYNNPVLKSRLTISKDTSKNQVFLRIANVDTPDTATYYCARISSIYYIIDNWGQGTSVTVSS VL: DIVLTQSPATLSVTPGHSVSLSCRASQSISNNLHWYQKKSHESPRLLIKYVSQSISGIPSRFSGSGSGTDFTLSINSVETEDFGMYFCQQSYNWPLTFGAGTKLELK | no binding (tested: 3 µg/ml) | 2.97 nM
